Test results as given in paper PMC6435475, “Structural and functional characterisation of the entry point to pyocyanin biosynthesis in Pseudomonas aeruginosa defines a new 3-deoxy-D-arabino-heptulosonate 7-phosphate synthase subclass” (Bioscience Reports, 2018).

What was measured:
C=C(OP(=O)(O)O)C(=O)O = assay: purified protein; conditions: E4P 150 μM, Co2+ 100 μM, pH 7.5, 37 °C
Excerpt: (§1) initial-rate UV-Vis spectrophotometric assay on PaeDAH7PS^PA1901 (type II DAH7PS, phzC)

[1] = system: O=C[C@H](O)[C@H](O)COP(=O)(O)O; assay: purified protein; conditions: PEP 150 μM, Co2+ 100 μM, pH 7.5, 37 °C
Excerpt: as §1

[2] = biological target: the molecule itself; assay: SEC-SAXS; injection concentration 8.0 mg/ml (180 uM; also 5.0 mg/ml), Superdex S200, 50 mM bis-tris propane pH 7.5, 100 uM cobalt chloride, 200 uM PEP, 5% glycerol, 293 K; elution peak deconvoluted into two Gaussian components (peaks A and B)
[3] = biological target: the molecule itself; assay: crystal structure; microbatch crystallisation, protein 3-5 mg/ml (67-112 uM), 0.2 M sodium fluoride, 1 mM cobalt chloride, 1 mM PEP, 18% PEG 3350, 278 K; space group C222(1), two chains in the asymmetric unit, tetramer by a two-fold crystallographic symmetry operation

| Molecule | Km (C=C(OP(=O)(O)O)C(=O)O) [µM] | kcat (C=C(OP(=O)(O)O)C(=O)O) [s⁻¹] | kcat/Km (C=C(OP(=O)(O)O)C(=O)O) [M⁻¹ s⁻¹] | Km [1] [µM] | kcat [1] [s⁻¹] | kcat/Km [1] [M⁻¹ s⁻¹] | stoichiometry N [2] | stoichiometry N [3] |
| --- | --- | --- | --- | --- | --- | --- | --- | --- |
| PaeDAH7PS^PA1901 (type II DAH7PS, phzC) (Pseudomonas aeruginosa PAO1) | 17 ± 1 | 19.8 ± 0.4 | 1.16e+06 ± 100000 | 16 ± 3 | 19.8 ± 0.4 | 1.24e+06 ± 150000 | – | – |
| PaeDAH7PS^PA1901 (3-deoxy-D-arabino-heptulosonate 7-phosphate synthase encoded by phzC, Pseudomonas aeruginosa PAO1) (enzyme, 3-deoxy-D-arabino-heptulosonate 7-phosphate synthase (type II DAH7PS) encoded by phzC, ORF PA1901 (duplicated as PA4212), Pseudomonas aeruginosa PAO1; the ORF was amplified from gDNA; residues up to 405 are named; measured mass of a single chain 44470 Da (calculated 44468 Da); Homodimer in solution at low concentration (AUC, SEC-SAXS); homotetramer in the crystal and at high concentration in …) MDDLLQRVRRCEALQQPEWGDPSRLRDVQAYLRGSPALIRAGDILALRATLARVARGEALVVQCGDCAEDMDDHHAENVARKAAVLELLAGALRLAGRRPVIRVGRIAGQYAKPRSKPHEQVGEQTLPVYRGDMVNGREAHAEQRRADPQRILKGYAAARNIMRHLGWDAASGQEANASPVWTSHEMLLLDYELSMLREDEQRRVYLGSTHWPWIGERTRQVDGAHVALLAEVLNPVACKVGPEIGRDQLLALCERLDPRREPGRLTLIARMGAQKVGERLPPLVEAVRAAGHPVIWLSDPMHGNTIVAPCGNKTRLVRSIAEEVAAFRLAVSGSGGVAAGLHLETTPDDVTECVADSSGLHQVSRHYTSLCDPRLNPWQALSAVMAWSGAEAIPSATFPLETVA | – | – | – | – | – | – | 2 | 4 |
